Assay results as given in US20240327502A1 (Merck Sharp & Dohme, published 2024).

Experiments:
[1] = target: T1, Unprocessed hMPV PreF trimer (human metapneumovirus, strain B2); test: BLI, mAb on anti-human Fc sensor
T1 construct: also called Unprocessed hMPV WT PreF trimer; unprocessed hMPV PreF trimeric antigen

[2] = target: T2, Processed stabilized hMPV PreF trimer (115BV) (human metapneumovirus, strain B2); test: BLI, mAb on anti-human Fc sensor
T2 construct: also called Processed hMPV PreF trimer; processed PreF

[3] = target: T3, hMPV PostF trimer (human metapneumovirus, strain B2); test: BLI, mAb on anti-human Fc sensor
T3 construct: also called MPV PostF (dPFv1)

[4] = target: T2, Processed stabilized hMPV PreF trimer …; test: BLI, ratio to unprocessed PreF trimer

| Binder | Octet binding response [1] | Octet binding response [2] | Octet binding response [3] | processed/unprocessed PreF trimer binding ratio [4] |
| --- | --- | --- | --- | --- |
| M2D02 (antibody, V domains shown, IgG) VH: QVQLVQSGAEVKKPGSSVKVSCKASGGTLTRYTISWVRQAPGQGLEWMGRIIPFLDIANYAPRFQGRVTMTADKSTSTAYMELSSLTSQDTAIYYCARDHSGNYFDLWGQGTLVTVSS VL: EIVMTQSPATLSVSPGERATLSCRASQSVTSNLAWYQRKPGQAPRLLIYGASTGATDIPGRFSGSGSGTEFTLTISGLQSEDFAVYYCQQYDHWPRTFGQGTKVEIK | 0.216 nm | 0.0468 nm | 0.541 nm | 0.22 |
| M2E11L (antibody, V domains shown) VH: QVQLVQSGAIMKKPGSSVKVSCKASGGTFTNFAFSWVRQAPGQGLEWMGGIIPFVGPANYAPQFQGRVTITADESTTTAYMELNSLRSEDTAVYYCARVRGFGETAYFYHYYMDVWGKGTTVTVSS VL: QTVVTQEPSLSVSPGGTVTLTCGLSSGSVSTSHFPSWYQQIPGQPPRTLIYSTITRSSGVPDRFSGSILGNKATLTITGAQADDECDYYCVLYLGGGIPHWVFGGGTKLTVL | 0.332 nm | 0.162 nm | 0.0538 nm | 0.49 |
| M3A12 (antibody, V domains shown, IgG) VH: QVQLQESGPQLVKPSQTLSLTCTVSGDSISSSDYCWSWIRQSPGKGLEWIGHSVYSGDTQYNPSLKSRLSISVDTSKNQFSLRLRSVTAADTAVYYCARGNDFWSGSFDYWGQGALVIVSS VL: DIQMTQSPSSLSASVGDRVTITCRASQSIGTYLNWYQQKPGKAPKVLIYAASSLQSGVPSRFSGRGSGTDFTLTVSSLQPEDFASYYCQQSYTKPYTFGQGTKLEIK | 0.31 nm | 0.0766 nm | 0.0469 nm | 0.25 |
| M3D03 (antibody, V domains shown, IgG) VH: QVQLVQSGAEVKKPGASVKVSCKASGYTFTSYGISWVRQAPGQGLEWMGWISAYNGNTNYAQKLQGRVTMTTDTSTSTAYMELRSLRSDDTAVYYCARDAPFGRDDGYGMDVWGQGTTVTVSS VL: not shown | 0.242 nm | 0.0286 nm | -0.054 nm | 0.12 |
| M2C10 (antibody, V domains shown, IgG) VH: QVQLVESGGGVVQPGRSLRLSCAASGFTFNNYAMHWVRQAPGKGLEWVALISDDGSKKYFADALKGRFTIFRDNSKNTLYLQMNSLRAEDTAVYYCARDPTPLGEYYFDYWGQGTLVTVSS VL: DIQMTQSPSSLSASVGDRVTITCRASQTISGYLNWYQQKPGKAPNLLIYTASSLESGVPSRFSGSGSETDFTLTISSLQPEDFATYYCQQSYRMPLTFGGGTRVSLK | 0.382 nm | 0.0939 nm | -0.0261 nm | 0.25 |
| M3A03 (antibody, V domains shown, IgG) VH: QVQLVQSGAEVKKPGASVKVSCKASAYTFTSYGITWVRQAPGQGLEWMGWISAYRGNTKYAQKLQGRVTMTTDTSTSTASMELRSLRSDDTAVYYCARTSYYDSSYYPIDYWGQGTLVTVSS VL: SYVLTQPPSVSVAPGQTARITCGGNNIGSKSVQWYQQKPGQAPVLVVYDDSDRPSGIPERFSGSNSGNTATLTISRVEAGDEADYYCQVWDSSGDRVVFGGGTKLTVL | 0.181 nm | 0.0409 nm | 0.568 nm | 0.23 |
| M2E04 (antibody, V domains shown, IgG) VH: QVQLQESGPGLVKPSEILSLTCTVSRFSINSGYYWGWIRQPPGKGLEWIGCISHAGSIYSNPSLESRVTLSLDTSKNQFSLKLTSVIAADTATYYCAASSNWHNALEYWGQGTLVVVSS VL: QSVLTQPPSASGTPGQTVTISCSGSRSNMGINWVYWYQQLPGTAPKLVIYRNSQRPSGVPDRFSGSQSGTSASLAISGLRSEDEAVYYCAVWDDSLDGRLFGGGTKLTVL | 0.391 nm | 0.199 nm | 0.0702 nm | 0.51 |
| M2E05 (antibody, V domains shown, IgG) VH: QVQLQESGPGLVKPSEILSLTCTVSRYSINSGYYWGWIRQPPGKGLEWVGCVSHAGVTYYNPSLESRVAVSLDTSKNQFSLKMTSVSAADTAMYYCAASSNWHNALEYWGQGTLVAVSS VL: QSVLTQPPSASGTPGQSVTISCSGSSSNMGINWVYWYQQLPGTAPKLLIYRNSQRPSGVPDRFSGSQSGTSASLAISGLRSEDEGHYYCAVWDDVVSGRLFGGGTKLTVL | 0.426 nm | 0.228 nm | 0.0401 nm | 0.54 |
| M2E07 (antibody, V domains shown, IgG) VH: EVQLVESGGGLVQTGGSLRLACAASGFTFSSYAMSWVRQAPGKGLEWVSTITESGDDAYYADSVKGRLTISRDNSKNTLFLHLNGLRSEDTARYYCAKDMGLYKSSWYGNFFYYYYMDVWGEGTTVTVSS VL: QSALTQPASVSGSPGQSITISCTGSSSNIGSFDLISWYQQHPGKAPKFIIYEGDKRPSGVSYRFSGSKSGSTASLTISGLQAEDEAYYYCCSYARSRTLVFGGGTKVTVL | 0.216 nm | 0.0476 nm | 0.0137 nm | 0.22 |
| M2E08 (antibody, V domains shown, IgG) VH: EVQLVESGGDLVLPGGSLRLSCEASGFMFSSYAMNWVRQAPGKGLERVSGISGSGGNTYYADSVKGRFTISRDNSKNIVYLQMNSLRAEDTAVYYCAKDLGNDYFYYIDVWGKGTTVMVSS VL: QSVLTQPPSVSGAPGQRVTISCTGTNFNIGAGYDVQWYQQLPGAAPKLLIHGNTYRPSGVPDRFSGSKSGTSASLAITGLQAEDEADYYCQSYDSSLSMVFGGGTKLTVL | 0.349 nm | 0.0781 nm | -0.0233 nm | 0.22 |
| M2B04 (antibody, V domains shown, IgG) VH: QVQLVQSGPEVKKPGASVKVSCKASGYSITTYGIDWVRQAPGQGLEWIGWSSAHTGNTNYAEKFQGRVTMTTDTSTYTTYMELRSLKSDDTAVYYCAMGAYTSSRNWFDPWGQGTLVIVSS VL: EIVLTQSPATLSLSPGERATLSCRASQNINNFLAWYQQKAGQAPRLLIYDASNRATGIPGRFSGSGSGTDFTLTISSLEPEDFAVYYCQQRANWPLTFGGGTKVEVK | 0.328 nm | 0.125 nm | 0.0152 nm | 0.38 |
| M3E09 (antibody, V domains shown, IgG) VH: EVQLVESGGGVVRPGGSLRLSCAASGFRFDDYAMNWVRQAPGKGLEWVSGINWIGGTTKYADSVKGRFTISRDNTKNSLYLQMNSLRAEDTALYYCARGVGYYYYYMDVWGRGTTVTVSS VL: EIVLTQSPGTLSLSPGERATLSCRATQSVSSNYLAWYQQKPGQAPRLLIYDASSRAIGIPDRFSGSGSGTDFTLTISRLESEDFAVYYCQQYGSSPETFGQGTKVEIK | 0.226 nm | 0.0948 nm | -0.0506 nm | 0.42 |
| M2E01 (antibody, V domains shown, IgG) VH: QLQLQESGPGLVKPSETLSLTCTVSGGSISSSTYYWGWIRQPPGKGLEWIGTIYYSGSTDYNPSLKSRLTISVDTSKNQFSLRLRSVTAADTAVYYCARLVSPYDQFDYWGQGTLVTVSS VL: DIQMTQSPSSLSASVGDRVTITCRASQTITTYLSWYLQKPGKAPKLLIYAASSWQSGVPSRFSGSGSGTDFTLTISSLQPEDFATYYCQQSYSTPYTFGQGTKLEIK | 0.408 nm | 0.126 nm | -0.016 nm | 0.31 |
| M3B04 (antibody, V domains shown, IgG) VH: QVQLQESGPGLVKPSETVSLTCTVSGGSISSNNWWSWVRQSPGKGLEWIGEIYHSGSTNFNPSLKSRVTISVDKSKNHFSLKLGSLTAADTAVYYCARRPNDYGDYSYYYYYYMDVWGKGTTVTVSS VL: EIVLTQSPATLSLSPGESATLSCRASQSINRNLAWYQQKPGQAPRLLIYDASNRATGIPARFSGSGSGTDFTLTISSLEPEDFAVYYCQQRSHWVTFGQGTRLEIK | 0.177 nm | 0.0297 nm | 0.446 nm | 0.17 |
| M3B12 (antibody, V domains shown, IgG) VH: QVQLVESGGGVVQPGGSLRLSCAASGFTFSSYGMHWVRQAPGKGLEWVAFIRYDGSNKYYADSVKGRFTISRDNSKNTLYLQMNSLRAEDTAVYYCAKDSGSYYYYYYMDVWGKGTTVTVSS VL: not shown | 0.157 nm | 0.0102 nm | 0.417 nm | 0.07 |
| M1A11 (antibody, V domains shown, IgG; also called MIA11) VH: QLQLQESGPGLVKPSETLSLTCTVSGDSISSSSFYWGWIRQPPGKGLEWIATIYYTGSTEYNPSLKSRISISVDTSMNQFSLRLRSVTAADTAVYYCARQEGSSWSNWFDPWGQGTLVTVSS VL: DIQMTQSPSSLSASVGDRVTITCRASQSISTYLNWYQQKPGKAPKLLIYVASSLQSGVPSRFSGSGSGTDFTLTISSLQPEDFATYYCQQGYSIPWTFGHGTKVEIK | 0.342 nm | 0.0515 nm | 0.0143 nm | 0.15 |
| M3A04 (antibody, V domains shown, IgG) VH: QVQLVESGGGVVQPGRSLRLSCAASGLTFSTYVMHWVRQAPGKGLEWVAVISYDGTNEHYADSVKGRFTISRDNSKNTLYLQMNSLRPEDTAVYYCARGTADYDVWSGSAWGGFDYWGQGTLVTVSS VL: DIQMTQSPSSLSASVGDRVTITCRASQSISSYLNWYQQKPGKAPKLLMYTVSSLPSGVPSRFSGSGSGTDFTLTISSLQPEDFATYYCQQSYNIPYTFGQGTKLEIK | 0.373 nm | 0.0846 nm | -0.0261 nm | 0.23 |
